The source of these data is publication PMC4516985, “Transactivation of human osteoprotegerin promoter by GATA-3”.

Series [1] has as its target T1, GATA-3 (Homo sapiens, UniProt P23771 1-443). Put plainly: competition; excess unlabeled mutant did not compete with biotin-G3RE2; protein source conflict as above; LightShift EMSA Optimization & Control Kit (Thermo 20148) per manufacturer, 6% DNA retardation gel; buffer, salt, pH and temperature not stated. The note with it: protein: commercial; label: none. On the technique in general: In EMSA bound probe runs differently from free probe, usually more slowly.

The target of series [2] is T1, GATA-3. The series is described as follows: competition; excess unlabeled mutant did not compete with biotin-G3RE1; protein source conflict as above; LightShift EMSA Optimization & Control Kit (Thermo 20148) per manufacturer, 6% DNA retardation gel; buffer, salt, pH and temperature not stated. The note with it: protein: commercial; label: none.

T1 sequence (P23771 whole entry): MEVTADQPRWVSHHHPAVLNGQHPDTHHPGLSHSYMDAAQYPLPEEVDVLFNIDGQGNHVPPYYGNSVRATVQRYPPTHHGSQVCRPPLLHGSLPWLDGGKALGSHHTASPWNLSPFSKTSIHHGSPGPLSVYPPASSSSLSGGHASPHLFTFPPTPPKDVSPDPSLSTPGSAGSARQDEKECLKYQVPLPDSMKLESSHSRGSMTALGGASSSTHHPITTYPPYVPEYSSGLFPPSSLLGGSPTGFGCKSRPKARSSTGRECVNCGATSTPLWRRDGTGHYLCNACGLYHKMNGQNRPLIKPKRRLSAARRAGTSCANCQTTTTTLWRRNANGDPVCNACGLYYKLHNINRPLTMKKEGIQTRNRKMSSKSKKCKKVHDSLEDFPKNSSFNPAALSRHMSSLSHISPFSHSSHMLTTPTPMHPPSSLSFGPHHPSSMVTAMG

B1: mutant G3RE2 probe (dsDNA)
DNA 1: TAACTACCCCAGAGTTGAAGGAGTGA
DNA 2: TCACTCCTTCAACTCTGGGGTAGTTA
As to B1, the binding result in series [1] is given as “no binding”.

B2: mutant G3RE1 probe (dsDNA)
DNA 1: TAGGAAGCTCCCATGGCAATAGCCCT
DNA 2: AGGGCTATTGCCATGGGAGCTTCCTA
On to B2, for which the binding result in series [2] is recorded as “no binding”.
